# Measured values reported in article PMC9482650, “Quantitative fragmentomics allow affinity mapping of interactomes” (Nature Communications, 2022).
# T1: DLG3_1, Q92796
# T1 sequence (Q92796 125-227, limits assumed, looked up): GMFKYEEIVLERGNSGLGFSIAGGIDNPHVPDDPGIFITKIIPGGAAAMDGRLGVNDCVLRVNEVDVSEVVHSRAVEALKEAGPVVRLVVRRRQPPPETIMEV
# T2: FRMPD1, Q5SYB0
# T2 sequence (Q5SYB0 52-145, limits assumed, looked up): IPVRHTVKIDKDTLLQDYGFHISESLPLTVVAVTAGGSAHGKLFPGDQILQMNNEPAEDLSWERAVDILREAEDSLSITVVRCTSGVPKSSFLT
# T3: LIN7B, Q9HAP6
# T3 sequence (Q9HAP6 88-185, limits assumed, looked up): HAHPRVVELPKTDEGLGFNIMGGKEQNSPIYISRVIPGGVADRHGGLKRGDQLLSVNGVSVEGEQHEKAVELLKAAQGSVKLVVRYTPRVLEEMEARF
# T4: LNX2_2, Q8N448
# T4 sequence (Q8N448 334-432, limits assumed, looked up): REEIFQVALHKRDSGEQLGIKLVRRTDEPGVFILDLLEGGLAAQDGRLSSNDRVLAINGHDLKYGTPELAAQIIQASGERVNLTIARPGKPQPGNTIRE
# T5: MPP2, Q14168
# T5 sequence (Q14168 180-250, limits assumed, looked up): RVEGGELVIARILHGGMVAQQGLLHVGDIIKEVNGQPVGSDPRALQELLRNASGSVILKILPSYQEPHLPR
# T6: PCLO, Q9Y6V0
# T6 sequence (Q9Y6V0 4491-4600, limits assumed, looked up): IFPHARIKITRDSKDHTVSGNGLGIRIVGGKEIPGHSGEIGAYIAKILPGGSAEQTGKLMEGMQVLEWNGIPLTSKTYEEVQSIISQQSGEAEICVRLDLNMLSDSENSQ
# T7: PDZRN3_1, Q9UPQ7
# T7 sequence (Q9UPQ7 244-349, limits assumed, looked up): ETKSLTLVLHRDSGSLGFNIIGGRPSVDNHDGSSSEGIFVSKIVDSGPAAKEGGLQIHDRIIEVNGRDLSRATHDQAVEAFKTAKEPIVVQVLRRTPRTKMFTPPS
# T8: RHPN1, Q8TCX5
# T8 sequence (Q8TCX5 508-602, limits assumed, looked up): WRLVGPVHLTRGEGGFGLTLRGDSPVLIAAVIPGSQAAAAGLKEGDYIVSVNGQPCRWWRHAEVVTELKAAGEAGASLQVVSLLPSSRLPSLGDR
# T9: SNTA1, Q13424
# T9 sequence (Q13424 82-180, limits assumed, looked up): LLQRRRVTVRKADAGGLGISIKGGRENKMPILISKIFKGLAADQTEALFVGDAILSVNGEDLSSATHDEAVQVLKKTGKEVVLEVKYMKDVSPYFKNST
# T10: SNTG2, Q9NY99
# T10 sequence (Q9NY99 68-166, limits assumed, looked up): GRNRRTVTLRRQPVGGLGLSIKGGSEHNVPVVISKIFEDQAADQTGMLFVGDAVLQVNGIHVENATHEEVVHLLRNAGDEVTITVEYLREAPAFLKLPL
# T11: TX1BP3, O14907
# T11 sequence (O14907 10-122, limits assumed, looked up): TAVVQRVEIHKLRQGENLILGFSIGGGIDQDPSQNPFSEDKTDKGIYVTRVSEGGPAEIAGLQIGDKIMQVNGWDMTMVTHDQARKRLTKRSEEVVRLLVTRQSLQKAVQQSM
# B1: RRBP1, Q9P2E9 (peptide)
# chain: GSSSKEGTSV
# B2: CTBP1, Q13363 (peptide)
# chain: ADRDHASDQL
# B3: APPL1, Q9UKG1 (peptide)
# chain: EGGKKRESEA
# B4: EZH1, Q92800 (peptide)
# chain: VGIERETDVL
# Target: T1, DLG3_1, Q92796
# Test: holdup assay
# Design: key: below the threshold = too weak to quantify, mostly under pKd 3.1 to 4
# Conditions: plain residues with an end cap or a label only (N-terminal biotin on a linker: ado-ado)
row,Binder,pKd
1,B1,3.69
2,B2,below the threshold
3,B3,below the threshold
4,B4,below the threshold

# Target: DLG4_2, P78352
# Test: holdup assay
# Design: key: below the threshold = too weak to quantify, mostly under pKd 3.1 to 4
# Conditions: plain residues with an end cap or a label only (N-terminal biotin on a linker: ado-ado)
# DLG4_2, P78352, sequence (P78352 155-259): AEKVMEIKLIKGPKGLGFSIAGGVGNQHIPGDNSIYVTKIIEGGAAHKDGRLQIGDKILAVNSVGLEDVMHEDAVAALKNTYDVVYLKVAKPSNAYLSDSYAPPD
row,Binder,pKd
1,B1,4.27
2,B2,below the threshold
3,B3,below the threshold
4,B4,below the threshold

# Target: DLG4_3, P78352
# Test: holdup assay
# Design: key: below the threshold = too weak to quantify, mostly under pKd 3.1 to 4
# Conditions: plain residues with an end cap or a label only (N-terminal biotin on a linker: ado-ado)
# DLG4_3, P78352, sequence (P78352 306-403): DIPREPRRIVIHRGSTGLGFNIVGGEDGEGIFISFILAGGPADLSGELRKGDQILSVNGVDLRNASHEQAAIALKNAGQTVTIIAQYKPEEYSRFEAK
row,Binder,pKd
1,B1,3.64
2,B2,below the threshold
3,B3,below the threshold
4,B4,below the threshold

# Target: T2, FRMPD1, Q5SYB0
# Test: holdup assay
# Design: key: below the threshold = too weak to quantify, mostly under pKd 3.1 to 4
# Conditions: plain residues with an end cap or a label only (N-terminal biotin on a linker: ado-ado)
row,Binder,pKd
1,B1,below the threshold
2,B2,below the threshold
3,B3,below the threshold
4,B4,below the threshold

# Target: FRMPD2_1, Q68DX3
# Test: holdup assay
# Design: key: below the threshold = too weak to quantify, mostly under pKd 3.1 to 4
# Conditions: plain residues with an end cap or a label only (N-terminal biotin on a linker: ado-ado)
# FRMPD2_1, Q68DX3, sequence (Q68DX3 770-861): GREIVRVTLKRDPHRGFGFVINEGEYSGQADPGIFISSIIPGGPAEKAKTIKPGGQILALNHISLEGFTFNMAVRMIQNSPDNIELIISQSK
row,Binder,pKd
1,B1,below the threshold
2,B2,below the threshold
3,B3,below the threshold
4,B4,below the threshold

# Target: GRIP2_3, Q9C0E4
# Test: holdup assay
# Design: key: below the threshold = too weak to quantify, mostly under pKd 3.1 to 4
# Conditions: plain residues with an end cap or a label only (N-terminal biotin on a linker: ado-ado)
# GRIP2_3, Q9C0E4, sequence (Q9C0E4 238-339): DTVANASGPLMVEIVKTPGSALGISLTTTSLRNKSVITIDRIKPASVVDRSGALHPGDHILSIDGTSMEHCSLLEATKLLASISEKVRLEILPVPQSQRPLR
row,Binder,pKd
1,B1,below the threshold
2,B2,below the threshold
3,B3,below the threshold
4,B4,below the threshold

# Target: HTRA1, Q92743
# Test: holdup assay
# Design: key: below the threshold = too weak to quantify, mostly under pKd 3.1 to 4
# Conditions: plain residues with an end cap or a label only (N-terminal biotin on a linker: ado-ado)
# HTRA1, Q92743, sequence (Q92743 360-477): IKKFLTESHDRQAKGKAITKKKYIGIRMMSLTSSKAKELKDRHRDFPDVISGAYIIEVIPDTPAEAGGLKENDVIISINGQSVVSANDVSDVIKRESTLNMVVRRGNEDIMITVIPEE
row,Binder,pKd
1,B1,3.84
2,B2,below the threshold
3,B3,below the threshold
4,B4,4.17

# Target: HTRA2, O43464
# Test: holdup assay
# Design: key: below the threshold = too weak to quantify, mostly under pKd 3.1 to 4
# Conditions: plain residues with an end cap or a label only (N-terminal biotin on a linker: ado-ado)
# HTRA2, O43464, sequence (O43464 355-458): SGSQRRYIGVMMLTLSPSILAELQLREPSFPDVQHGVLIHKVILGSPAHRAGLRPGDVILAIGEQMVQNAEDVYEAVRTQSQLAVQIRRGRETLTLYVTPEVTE
row,Binder,pKd
1,B1,below the threshold
2,B2,below the threshold
3,B3,below the threshold
4,B4,below the threshold

# Target: IL16_1, Q14005
# Test: holdup assay
# Design: key: below the threshold = too weak to quantify, mostly under pKd 3.1 to 4
# Conditions: plain residues with an end cap or a label only (N-terminal biotin on a linker: ado-ado)
# IL16_1, Q14005, sequence (Q14005 210-306): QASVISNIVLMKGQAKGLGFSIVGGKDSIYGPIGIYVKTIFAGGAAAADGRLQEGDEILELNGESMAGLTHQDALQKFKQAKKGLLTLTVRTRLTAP
row,Binder,pKd
1,B1,below the threshold
2,B2,below the threshold
3,B3,below the threshold
4,B4,below the threshold

# Target: IL16_3, Q14005
# Test: holdup assay
# Design: key: below the threshold = too weak to quantify, mostly under pKd 3.1 to 4
# Conditions: plain residues with an end cap or a label only (N-terminal biotin on a linker: ado-ado)
# IL16_3, Q14005, sequence (Q14005 1107-1207): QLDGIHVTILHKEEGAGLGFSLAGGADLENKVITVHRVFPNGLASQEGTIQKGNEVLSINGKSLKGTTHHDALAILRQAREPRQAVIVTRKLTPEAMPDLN
row,Binder,pKd
1,B1,below the threshold
2,B2,below the threshold
3,B3,below the threshold
4,B4,below the threshold

# Target: IL16_4, Q14005
# Test: holdup assay
# Design: key: below the threshold = too weak to quantify, mostly under pKd 3.1 to 4
# Conditions: plain residues with an end cap or a label only (N-terminal biotin on a linker: ado-ado)
# IL16_4, Q14005, sequence (Q14005 1229-1329): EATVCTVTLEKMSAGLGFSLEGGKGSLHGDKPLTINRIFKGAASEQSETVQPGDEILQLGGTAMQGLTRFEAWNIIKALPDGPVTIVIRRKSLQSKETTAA
row,Binder,pKd
1,B1,3.7
2,B2,below the threshold
3,B3,below the threshold
4,B4,3.48

# Target: Inadl_4, Q8NI35
# Test: holdup assay
# Design: key: below the threshold = too weak to quantify, mostly under pKd 3.1 to 4
# Conditions: plain residues with an end cap or a label only (N-terminal biotin on a linker: ado-ado)
# Inadl_4, Q8NI35, sequence (Q8NI35 547-651): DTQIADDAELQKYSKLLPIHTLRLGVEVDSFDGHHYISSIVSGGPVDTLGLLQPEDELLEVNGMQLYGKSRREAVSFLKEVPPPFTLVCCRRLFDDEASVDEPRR
row,Binder,pKd
1,B1,below the threshold
2,B2,below the threshold
3,B3,below the threshold
4,B4,below the threshold

# Target: Inadl_8, Q8NI35
# Test: holdup assay
# Design: key: below the threshold = too weak to quantify, mostly under pKd 3.1 to 4
# Conditions: plain residues with an end cap or a label only (N-terminal biotin on a linker: ado-ado)
# Inadl_8, Q8NI35, sequence (Q8NI35 1425-1530): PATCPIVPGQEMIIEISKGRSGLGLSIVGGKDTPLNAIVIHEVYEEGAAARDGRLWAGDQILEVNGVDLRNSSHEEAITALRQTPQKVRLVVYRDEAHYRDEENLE
row,Binder,pKd
1,B1,3.91
2,B2,below the threshold
3,B3,below the threshold
4,B4,below the threshold

# Target: LIMK2, P53671
# Test: holdup assay
# Design: key: below the threshold = too weak to quantify, mostly under pKd 3.1 to 4
# Conditions: plain residues with an end cap or a label only (N-terminal biotin on a linker: ado-ado)
# LIMK2, P53671, sequence (P53671 143-248): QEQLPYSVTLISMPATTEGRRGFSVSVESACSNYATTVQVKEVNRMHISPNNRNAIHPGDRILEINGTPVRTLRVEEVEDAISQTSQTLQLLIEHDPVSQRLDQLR
row,Binder,pKd
1,B1,below the threshold
2,B2,below the threshold
3,B3,below the threshold
4,B4,below the threshold

# Target: T3, LIN7B, Q9HAP6
# Test: holdup assay
# Design: key: below the threshold = too weak to quantify, mostly under pKd 3.1 to 4
# Conditions: plain residues with an end cap or a label only (N-terminal biotin on a linker: ado-ado)
row,Binder,pKd
1,B1,below the threshold
2,B2,below the threshold
3,B3,3.75
4,B4,3.53

# Target: T4, LNX2_2, Q8N448
# Test: holdup assay
# Design: key: below the threshold = too weak to quantify, mostly under pKd 3.1 to 4
# Conditions: plain residues with an end cap or a label only (N-terminal biotin on a linker: ado-ado)
row,Binder,pKd
1,B1,4.15
2,B2,below the threshold
3,B3,below the threshold
4,B4,below the threshold

# Target: T5, MPP2, Q14168
# Test: holdup assay
# Design: key: below the threshold = too weak to quantify, mostly under pKd 3.1 to 4
# Conditions: plain residues with an end cap or a label only (N-terminal biotin on a linker: ado-ado)
row,Binder,pKd
1,B1,below the threshold
2,B2,below the threshold
3,B3,below the threshold
4,B4,below the threshold

# Target: NHERF4_1, Q86UT5-2
# Test: holdup assay
# Design: key: below the threshold = too weak to quantify, mostly under pKd 3.1 to 4
# Conditions: plain residues with an end cap or a label only (N-terminal biotin on a linker: ado-ado)
# NHERF4_1, Q86UT5-2, sequence (Q86UT5 other isoform, or with tags, fused parts or gaps): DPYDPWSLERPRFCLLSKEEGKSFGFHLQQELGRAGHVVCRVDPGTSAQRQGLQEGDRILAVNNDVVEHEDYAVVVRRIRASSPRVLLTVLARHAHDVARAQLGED
row,Binder,pKd
1,B1,3.51
2,B2,4.05
3,B3,below the threshold
4,B4,3.8

# Target: PARD3_3, Q8TEW0
# Test: holdup assay
# Design: key: below the threshold = too weak to quantify, mostly under pKd 3.1 to 4
# Conditions: plain residues with an end cap or a label only (N-terminal biotin on a linker: ado-ado)
# PARD3_3, Q8TEW0, sequence (Q8TEW0 582-685): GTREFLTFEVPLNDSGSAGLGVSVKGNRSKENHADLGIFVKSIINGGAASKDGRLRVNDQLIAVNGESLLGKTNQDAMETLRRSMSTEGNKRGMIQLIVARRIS
row,Binder,pKd
1,B1,below the threshold
2,B2,below the threshold
3,B3,below the threshold
4,B4,3.67

# Target: T6, PCLO, Q9Y6V0
# Test: holdup assay
# Design: key: below the threshold = too weak to quantify, mostly under pKd 3.1 to 4
# Conditions: plain residues with an end cap or a label only (N-terminal biotin on a linker: ado-ado)
row,Binder,pKd
1,B1,below the threshold
2,B2,below the threshold
3,B3,below the threshold
4,B4,below the threshold

# Target: PDLIM1, O00151
# Test: holdup assay
# Design: key: below the threshold = too weak to quantify, mostly under pKd 3.1 to 4
# Conditions: plain residues with an end cap or a label only (N-terminal biotin on a linker: ado-ado)
# PDLIM1, O00151, sequence (O00151 1-87): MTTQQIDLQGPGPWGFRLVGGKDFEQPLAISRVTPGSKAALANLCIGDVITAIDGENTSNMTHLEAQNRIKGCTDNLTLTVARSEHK
row,Binder,pKd
1,B1,below the threshold
2,B2,below the threshold
3,B3,below the threshold
4,B4,below the threshold

# Target: T7, PDZRN3_1, Q9UPQ7
# Test: holdup assay
# Design: key: below the threshold = too weak to quantify, mostly under pKd 3.1 to 4
# Conditions: plain residues with an end cap or a label only (N-terminal biotin on a linker: ado-ado)
row,Binder,pKd
1,B1,4.33
2,B2,below the threshold
3,B3,below the threshold
4,B4,below the threshold

# Target: T8, RHPN1, Q8TCX5
# Test: holdup assay
# Design: key: below the threshold = too weak to quantify, mostly under pKd 3.1 to 4
# Conditions: plain residues with an end cap or a label only (N-terminal biotin on a linker: ado-ado)
row,Binder,pKd
1,B1,3.49
2,B2,below the threshold
3,B3,below the threshold
4,B4,below the threshold

# Target: T9, SNTA1, Q13424
# Test: holdup assay
# Design: key: below the threshold = too weak to quantify, mostly under pKd 3.1 to 4
# Conditions: plain residues with an end cap or a label only (N-terminal biotin on a linker: ado-ado)
row,Binder,pKd
1,B1,3.8
2,B2,below the threshold
3,B3,below the threshold
4,B4,4.63

# Target: T10, SNTG2, Q9NY99
# Test: holdup assay
# Design: key: below the threshold = too weak to quantify, mostly under pKd 3.1 to 4
# Conditions: plain residues with an end cap or a label only (N-terminal biotin on a linker: ado-ado)
row,Binder,pKd
1,B1,3.59
2,B2,below the threshold
3,B3,below the threshold
4,B4,below the threshold

# Target: SNX27, Q96L92
# Test: holdup assay
# Design: key: below the threshold = too weak to quantify, mostly under pKd 3.1 to 4
# Conditions: plain residues with an end cap or a label only (N-terminal biotin on a linker: ado-ado)
row,Binder,pKd
1,B1,4.1
2,B2,below the threshold
3,B3,below the threshold
4,B4,below the threshold

# Target: T11, TX1BP3, O14907
# Test: holdup assay
# Design: key: below the threshold = too weak to quantify, mostly under pKd 3.1 to 4
# Conditions: plain residues with an end cap or a label only (N-terminal biotin on a linker: ado-ado)
row,Binder,pKd
1,B1,below the threshold
2,B2,below the threshold
3,B3,below the threshold
4,B4,below the threshold
